Measurements taken from US20180155451A1 (published 2018).
Where a chain is given by its changes, count along the chain named. Names and notes keep the numbering of the source. Where two headings read alike, the source gives them in different places.

What was measured:
[1] = molecular target: T1, FcγRIIIa extracellular domain with C-terminal His tag (human, UniProt P08637 17-208); assay: SPR (Biacore), kinetic analysis, antibody captured, FcγRIIIa as analyte
T1 construct: extracellular domain; also called FcgRIIIa; 3a; not shown: His tag at the C terminus
Source text: Then, the present inventors introduced I332E into only one H chain, and assessed whether the Tm is elevated as compared to when I332E is introduced into both H chains. Expression vectors inserted with GpH7-A44 (SEQ ID NO: 49) and GpH7-B80 (SEQ ID NO: 50) resulting from the introduction of I332E into GpH7-A5 and GpH7-B3, respectively, were constructed. They were combined with GpH7-B3, GpH7-A5, and GpL16-k0 to express and prepare the following antibodies according to the method described in Reference Example 1: the heterodimerized antibodies GpH7-A5/GpH7-B80/GpL16-k0 and GpH7-A44/GpH7-B3/GpL16-k0 in which only one of the H chains was introduced with I332E, and the homodimerized antibody GpH7-A44/GpH7-B80/GpL16-k0 in which both of the H chains were introduced with I332E. GpH7-A5/GpH7-B3/GpL16-k0 was prepared as a control. Each antibody was assessed for the FcγRIIIa-binding activity according to the method described in Reference Example 2. In addition, the antibodies were compared for the Tm of CH2 domain by thermal shift assay according to the method described in Reference Example 5 (Tables 28 and 29).
Analysis of interaction between objective antibody and the FcγR was carried out using Biacore T100 (GE Healthcare). HBS-EP+ (GE Healthcare) was used as the running buffer, and the measurement temperature was set to 25° C. Chips produced by immobilizing the antigen peptide by the amine coupling method to a Series S Sencor Chip CM5 (GE Healthcare), or alternatively, chips produced by allowing preliminarily biotinylated antigen peptides to interact with and immobilize onto a Series S Sensor Chip SA (certified) (GE Healthcare) were used. Antibodies of interest were captured onto an antigen peptide-immobilized chip, and allowed to interact to each FcγR diluted with running buffer. To regenerate and repeatedly use the chip, the antibodies captured on the chip were washed off by reacting 10 mM glycine-HCl, pH 1.5.
The FcγR-binding activity of each antibody was assessed primarily using as an indicator the FcγR-binding activity and dissociation constant for FcγR.

FcgRIIa R [2] = molecular target: T2, FcgRIIa R (human, UniProt P12318 34-217); assay: SPR (Biacore), antibody captured on chip, FcgR extracellular domain as analyte
T2 construct: extracellular domain; also called FcγRIIa R; FcγRIIa type R; not shown: His tag attached to the C terminus
T2 sequence (looked up): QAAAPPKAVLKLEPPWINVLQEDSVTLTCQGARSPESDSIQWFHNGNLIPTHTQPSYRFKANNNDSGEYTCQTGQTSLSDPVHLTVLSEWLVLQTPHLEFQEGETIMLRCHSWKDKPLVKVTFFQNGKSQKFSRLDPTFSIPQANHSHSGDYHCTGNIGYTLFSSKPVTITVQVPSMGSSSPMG
Procedure: (§1) Analysis of interaction between obj ective antibody and the FcγR was carried out using Biacore T100 (GE Healthcare), Biacore T200, Biacore A100, and Biacore 4000. HBS-EP+ (GE Healthcare) was used as the running buffer, and the measurement temperature was set to 25° C. Chips produced by immobilizing the antigen peptide by the amine coupling method to a Series S sensor Chip CM5 (GE Healthcare), chips produced by allowing preliminarily biotinylated antigen peptides to interact with and immobilize onto a Series S Sensor Chip SA (certified) (GE Healthcare), chips produced by immobilizing Protein L (ACTIGEN, BioVision) to Series S Sencor Chip CM5 (GE Healthcare), or chips produced by immobilizing Protein A/G (Thermo Scientific) to Series S Sencor Chip CM5 (GE Healthcare) were used. Antibodies of interest were captured onto these chips, and allowed to interact to each FcγR diluted with running buffer. To regenerate and repeatedly use the chip, the antibodies captured onto the chip were washed off by reacting 10 mM glycine-HCl, pH 1.5.

FcgRIIa H [3] = molecular target: T3, FcgRIIa H (human, UniProt P12318 34-217); assay: as above
T3 construct: extracellular domain; also called FcγRIIa H; FcγRIIa type H; not shown: His tag attached to the C terminus
T3 sequence (looked up): T2 sequence (looked up) with R134H
Procedure: as §1

FcgRIIIa F [4] = molecular target: T4, FcgRIIIa F (human, UniProt P08637 17-208); assay: as above
T4 construct: extracellular domain; also called FcγRIIIa F; not shown: His tag attached to the C terminus
Procedure: as §1

FcgRIIIa V [5] = molecular target: T5, FcgRIIIa V (human, UniProt P08637 17-208); assay: as above
T5 construct: extracellular domain; also called FcγRIIIa V; not shown: His tag attached to the C terminus
Procedure: as §1

FcgRIa = molecular target: T6, FcgRIa (human, UniProt P12314 16-292); assay: as above
T6 construct: extracellular domain; Expressed in FreeStyle293 cells and purified; used as analyte in Biacore; also called FcγRIa; FcγRI; not shown: His tag attached to the C terminus
Procedure: (§2) H240-Kn113 (SEQ ID NO: 92) resulting from introduction of Y234E and Y235N into H240-Kn072, H240-Kn115 (SEQ ID NO: 93) resulting from introduction of S239M into H240-Kn072, and H240-Kn125 (SEQ ID NO: 94) resulting from introduction of Y235Q and S239M into H240-Kn072 were prepared according to the method described in Reference Example 1.
as §1

FcgRIIa R [6] = molecular target: T2, FcgRIIa R; assay: as above; remark: listed apart in the source
Procedure: as §2, §1

FcgRIIa H [7] = molecular target: T3, FcgRIIa H; assay: as above; remark: listed apart in the source
Procedure: as §2, §1

FcgRIIb = molecular target: T7, FcgRIIb (human, UniProt P31994 43-217); assay: as above
T7 construct: extracellular domain; Expressed in FreeStyle293 cells and purified; used as analyte in Biacore; also called FcγRIIb; CD32B; not shown: His tag attached to the C terminus
T7 sequence (looked up): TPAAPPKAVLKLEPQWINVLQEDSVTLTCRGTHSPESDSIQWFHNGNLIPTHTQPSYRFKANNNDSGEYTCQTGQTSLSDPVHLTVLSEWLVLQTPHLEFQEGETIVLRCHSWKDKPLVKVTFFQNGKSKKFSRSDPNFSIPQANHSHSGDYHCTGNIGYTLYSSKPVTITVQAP
Procedure: as §2, §1

FcgRIIIa F [8] = molecular target: T4, FcgRIIIa F; assay: as above; remark: listed apart in the source
Procedure: as §2, §1

FcgRIIIa V [9] = molecular target: T5, FcgRIIIa V; assay: as above; remark: listed apart in the source
Procedure: as §2, §1

T4 sequence (P08637 17-208): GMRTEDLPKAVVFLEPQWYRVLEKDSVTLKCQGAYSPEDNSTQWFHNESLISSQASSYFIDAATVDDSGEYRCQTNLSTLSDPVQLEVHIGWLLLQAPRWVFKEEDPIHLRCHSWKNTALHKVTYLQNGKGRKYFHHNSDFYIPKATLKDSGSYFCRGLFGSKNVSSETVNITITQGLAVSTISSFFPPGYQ
T6 sequence (P12314 16-292): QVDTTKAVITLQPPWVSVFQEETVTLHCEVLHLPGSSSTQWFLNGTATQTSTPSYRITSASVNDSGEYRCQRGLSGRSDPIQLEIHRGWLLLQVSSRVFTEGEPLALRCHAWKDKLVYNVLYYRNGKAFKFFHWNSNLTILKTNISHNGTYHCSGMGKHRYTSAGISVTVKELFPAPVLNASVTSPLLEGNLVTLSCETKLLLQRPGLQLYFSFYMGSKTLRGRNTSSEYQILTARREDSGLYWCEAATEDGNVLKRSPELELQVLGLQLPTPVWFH
T5 sequence (P08637 17-208 F176V limits assumed): as the sequence (P08637 17-208) above, with F160V counted along it
T1 sequence (P08637 17-208): as the sequence (P08637 17-208) above

B1: GpH7-A44/GpH7-B80/GpL16-k0 (antibody, human IgG1, kappa)
heavy 1: QVQLVQSGAEVKKPGASVTVSCKASGYTFTDYEMHWIRQPPGEGLEWIGAIDPKTGDTAYSESFQDRVTLTADKSTSTAYMELSSLTSEDTAVYYCTRFYSYTYWGQGTLVTVSSASTKGPSVFPLAPSSKSTSGGTAALGCLVKDYFPEPVTVSWNSGALTSGVHTFPAVLQSSGLYSLSSVVTVPSSSLGTQTYICNVNHKPSNTKVDKKVEPKSCDKTHTCPPCPAPELLGGPSVFLFPPKPKDTLMISRTPEVTCVVVDVSHEDPEVKFNWYVDGVEVHNAKTKPREEQYNSTYRVVSVLTVLHQDWLNGKEYKCKVSNKALPAPEEKTISKAKGQPREPQVYTLPPSRKELTKNQVSLTCLVKGFYPSDIAVEWESNGQPENNYKTTPPVLDSDGSFFLYSKLTVDKSRWQQGNVFSCSVMHEALHNRYTQKSLSLSP
heavy 2: not shown
light: DIVMTQSPLSLPVTPGEPASISCQASESLVHSNRNTYLHWYLQKPGQSPQLLIYKVSNRFSGVPDRFSGSGSGTDFTLKISRVEAEDVGVYYCSQNTHVPPTFGQGTKVEIERTVAAPSVFIFPPSDEQLKSGTASVVCLLNNFYPREAKVQWKVDNALQSGNSQESVTEQDSKDSTYSLSSTLTLSKADYEKHKVYACEVTHQGLSSPVTKSFNRGEC
notes: Anti-glypican-3 IgG1 with I332E in both H chains
- KD ratio [1]: 7.1 fold (KD of GpH7-A5/GpH7-B3/GpL16-k0 divided by KD of the antibody)
- Kd [1]: 230 nM

B2: H240-Kn067/H240-Hl136/L73-k0 (antibody, human IgG1, kappa)
heavy 1: QDQLVQSGAEVKKPGASVKVSCKASGFNIKDTYIQWVRQAPGQGLEWMGRIDPLRKQTKYREKFEGRVTITADTSTNTAYMELSSLRSEDTAVYYCVRSGREFDYWGQGTLVTVSSASTKGPSVFPLAPSSKSTSGGTAALGCLVKDYFPEPVTVSWNSGALTSGVHTFPAVLQSSGLYSLSSVVTVPSSSLGTQTYICNVNHKPSNTKVDKKVEPKSCDKTHTCPPCPAPEYYWGPSVFLFPPKPKDTLMISRTPEVTCVVVDVSDEDPEVKFNWYVDGVEVHNAKTKPREEQYNATYRVVSVLTVLHQDWLNGKEYKCKVSNKDLPAPIEKTISKAKGQPREPQVCTLPPSRDELTKNQVSLWCLVKGFYPSDIAVEWESNGQPENNYKTTPPVLDSDGSFFLYSKLTVDKSRWQQGNVFSCSVMHEALHNHYTQKSLSLSP
heavy 2: B2 heavy 1 with C348Y, D355C, W365S, L367A, Y406V
light: DIQMTQSPSSLSASVGDRVTITCRASQDIHKYIAWYQQKPGQAPRLLIQYTSTLQPGVPSRFSGSGSGTDYTFTISSLQPEDIATYYCLQYEQLRTFGGGTKVEIKRTVAAPSVFIFPPSDEQLKSGTASVVCLLNNFYPREAKVQWKVDNALQSGNSQESVTEQDSKDSTYSLSSTLTLSKADYEKHKVYACEVTHQGLSSPVTKSFNRGEC
notes: Anti-EREG IgG1 called homodimerized: both H chains (knob and hole) carry L234Y/L235Y/G236W/H268D/S298A/A327D; also called H240-Kn067/H240-HI136/L73-k0
- Kd (FcgRIIa R [2]): 950 nM
- Kd (FcgRIIa H [3]): 2100 nM
- Kd (FcgRIIIa F [4]): 960 nM
- Kd (FcgRIIIa V [5]): 340 nM

B3: H240-Kn113/H240-Hl076/L73-k0 (antibody, human IgG1, kappa)
heavy 1: B2 heavy 1 with Y233E, Y234N, D269E, D326A
heavy 2: QDQLVQSGAEVKKPGASVKVSCKASGFNIKDTYIQWVRQAPGQGLEWMGRIDPLRKQTKYREKFEGRVTITADTSTNTAYMELSSLRSEDTAVYYCVRSGREFDYWGQGTLVTVSSASTKGPSVFPLAPSSKSTSGGTAALGCLVKDYFPEPVTVSWNSGALTSGVHTFPAVLQSSGLYSLSSVVTVPSSSLGTQTYICNVNHKPSNTKVDKKVEPKSCDKTHTCPPCPAPELLGGPSVFLFPPKPKDTLMISRTPEVTCVVVDVSHEEPEVKFNWYVDGVEVHNAKTKPREEQYNSTYRVVSVLTVLHQDWLNGKEYKCKVSNDALPMPIEETISKAKGQPREPQVYTLPPSRCELTKNQVSLSCAVKGFYPSDIAVEWESNGQPENNYKTTPPVLDSDGSFFLVSKLTVDKSRWQQGNVFSCSVMHEALHNHYTQKSLSLSP
light: B2 light
notes: Heterodimerized anti-EREG IgG1: Kn113 is H240-Kn072 with Y234E and Y235N
- Kd (FcgRIa): 0.21 nM
- Kd (FcgRIIa R [6]): 600 nM
- Kd (FcgRIIa H [7]): 350 nM
- Kd (FcgRIIb): 5 µM
- Kd (FcgRIIIa F [8]): 1.7 nM
- Kd (FcgRIIIa V [9]): 0.62 nM

B4: H240-Kn115/H240-Hl076/L73-k0 (antibody, human IgG1, kappa)
heavy 1: B2 heavy 1 with S238M, D269E, D326A
heavy 2: B3 heavy 2
light: B2 light
notes: Heterodimerized anti-EREG IgG1: Kn115 is H240-Kn072 with S239M
- Kd (FcgRIa): 0.27 nM
- Kd (FcgRIIa R [6]): 130 nM
- Kd (FcgRIIa H [7]): 62 nM
- Kd (FcgRIIb): 1.3 µM
- Kd (FcgRIIIa F [8]): 1.4 nM
- Kd (FcgRIIIa V [9]): 0.43 nM

B5: H240-Kn125/H240-Hl076/L73-k0 (antibody, human IgG1, kappa)
heavy 1: B2 heavy 1 with Y234Q, S238M, D269E, D326A
heavy 2: B3 heavy 2
light: B2 light
notes: Heterodimerized anti-EREG IgG1: Kn125 is H240-Kn072 with Y235Q and S239M
- Kd (FcgRIa): 0.24 nM
- Kd (FcgRIIa R [6]): 380 nM
- Kd (FcgRIIa H [7]): 190 nM
- Kd (FcgRIIb): 4.2 µM
- Kd (FcgRIIIa F [8]): 1.2 nM
- Kd (FcgRIIIa V [9]): 0.37 nM

B6: H240-Kn133/H240-Hl068/L73-k0 (antibody, human IgG1, kappa)
heavy 1: B3 heavy 2 with M329K, Y348C, C355D, S365W, A367L, V406Y
heavy 2: B3 heavy 2 with M329K
light: B2 light
notes: Anti-EREG IgG1 called homodimerized: both H chains carry D270E/K326D/A330K/K334E; also called H240-Kn133/H240-HI068/L73-k0
- Kd (FcgRIIa R [2]): 450 nM
- Kd (FcgRIIa H [3]): 160 nM
- Kd (FcgRIIIa F [4]): 120 nM
- Kd (FcgRIIIa V [5]): 14 nM
